In doi:10.1101/2022.05.27.493400:
Values joined by “and” are separate entries in the source; they are usually repeats but may differ in a detail not shown here. Identical values can stand only once.

Tests used:
[1] = target: pineapple-derived jacalin-related lectin AcmJRL (pineapple (Ananas comosus)); assay: dynamic light scattering
[2] = target: SARS-CoV-2 spike receptor-binding domain (RBD) (SARS-CoV-2) (UniProt P0DTC2); assay: SPR
[3] = target: human angiotensin-converting-enzyme-2 (ACE2) receptor, recombinant (human) (UniProt Q9BYF1); assay: SPR

## pineapple-derived jacalin-related lectin AcmJRL (natural protein)
[1]
  stoichiometry N: 2
[2]
  Kd: 12.9 µM and 35 µM
  kon: 1490 M⁻¹ s⁻¹
[3]
  Kd: 22.1 µM
  kon: 590 M⁻¹ s⁻¹
